Columns and labels:
Assay in all cases: FRET or BRET
[1] = biological target: YFP-GKC (rat)
[2] = biological target: YFP-GKC[trunc] (rat)
[3] = biological target: YFP-α1C (α1C[1671]) (UniProt P15381)
[4] = biological target: YFP-GKC[ΔPYDVV] (rat)

| Substance | FRET ratio (FR) [1] | K d,EFF (relative dissociation constant) [1] | effective FRET efficiency (E EFF) [1] [%] | FRET ratio (FR) [2] | K d,EFF (relative dissociation constant) [2] | effective FRET efficiency (E EFF) [2] [%] | FRET ratio (FR) [3] | K d,EFF (relative dissociation constant) [3] | FRET ratio (FR) [4] | effective FRET efficiency (E EFF) [4] [%] |
| --- | --- | --- | --- | --- | --- | --- | --- | --- | --- | --- |
| CFP-NSH3 (domain or fragment) | 2.8 | 1870 | 10.2 | 3.7 | 3090 | 15.5 | 1.68 | 11700 |  |  |
| CFP-α1C[I-II loop] (domain or fragment) | 5.4 |  | 25.6 |  |  |  |  |  | 5.5 | 26.1 |

Source: article PMC2266626
